Experimental data taken from doi:10.1101/325035.

Biological target: sfGFP-Ensconsin (full length) (Drosophila)
Assay: TIRF microscopy

K560-mScarlet (truncated Kinesin-1 motor) (domain or fragment)
fluorescence intensity of K560-mScarlet on microtubules with 25 nM sfGFP-Ensc: 34200 A.U.
